Assay results as given in publication PMC6582314, “Ligands Exert Biased Activity to Regulate Sigma 1 Receptor Interactions With Cationic TRPA1, TRPV1, and TRPM8 Channels” (Frontiers in Pharmacology, 2019).

What was measured:
Conditions in all cases: both partners purified
[1] = target: T1, TRPA1 N-terminal cytosolic region (aa 1-721), GST-tagged (mouse, UniProt Q8BLA8 1-721); test: pull-down; competition: immobilised TRP sequence with CaM or HINT1 and increasing concentrations of σ1R (up to 200 nM), 3 mM CaCl2; bound CaM or HINT1 by Western blot, relative to no σ1R
T1 construct: transient receptor potential ankyrin member 1, mouse, NP_808449, residues 1-721; Vector carries GST/HaloTag and a TEV site; also called TRPA1 N-terminus; TRPA1 N-terminal domain; source: E. coli BL21 (KRX), purified (GStrap FF or HaloLink Resin); not shown: GST, N-terminal, kept

[2] = target: T2, TRPM8 N-terminal cytosolic region (aa 1-639), GST-tagged (mouse, UniProt Q8R4D5 1-639); test: pull-down; TRP sequence (100 nM) covalently attached to NHS-activated Sepharose 4FF; prey 200 nM; 200 µL 50 mM Tris-HCl pH 7.5, 0.2% CHAPS, with 3 mM CaCl2; 30 min at RT, three washes; Western blot
T2 construct: transient receptor potential melastatin member 8, mouse, NP_599013, residues 1-639; also called TRPM8 N-terminus; source: E. coli BL21 (KRX), purified (GStrap FF or HaloLink Resin); not shown: GST, N-terminal, kept

[3] = target: T1, TRPA1 N-terminal cytosolic region (aa …); test: as above

Row | binding result [1] | binding result [2] | binding result [3] | Binder
1 | binds | binds | – | histidine triad nucleotide-binding protein 1 (HINT1), murine, GST-free (natural protein, mouse, UniProt P70349 1-126, looked up, source: E. coli BL21 (KRX), purified (GStrap FF or HaloLink Resin, cleaved with ProTEV protease, ion exchange); not shown: GST, N-terminal, cleaved) MADEIAKAQVAQPGGDTIFGKIIRKEIPAKIIFEDDRCLAFHDISPQAPTHFLVIPKKHISQISVADDDDESLLGHLMIVGKKCAADLGLKRGYRMVVNEGADGGQSVYHIHLHVLGGRQMNWPPG
2 | – | binds | binds | sigma 1 receptor (σ1R), full-length murine, GST-free (natural protein, mouse, UniProt O55242 1-223, looked up, sigma 1 receptor, mouse, GenBank AF004927, coding region of the full-length protein; 223 amino acids; also called type 1 sigma receptor; source: E. coli BL21 (KRX), purified (GStrap FF or HaloLink Resin, cleaved with ProTEV protease, ion exchange); not shown: GST, N-terminal, cleaved) MPWAAGRRWAWITLILTIIAVLIQAAWLWLGTQNFVFSREEIAQLARQYAGLDHELAFSRLIVELRRLHPGHVLPDEELQWVFVNAGGWMGAMCILHASLSEYVLLFGTALGSHGHSGRYWAEISDTIISGTFHQWKEGTTKSEVFYPGETVVHGPGEATALEWGPNTWMVEYGRGVIPSTLFFALADTFFSTQDYLTLFYTLRAYARGLRLELTTYLFGQDS
